Among the data in patent US20240385191A1 (NORDIC BIOSCIENCE A S, published 2024) are binding result and IC50 values, retold here.

Sequences and labels used below:
B1: monoclonal antibody targeting PRO-C20 (antibody produced by the best performing clone) (antibody, V domains shown)
VH: QIQLMQSGPELKKPGETVKISCKASGYPFTDYSMHWVKQAPGKGLKWMGWINTETGEPTYADGFKGRFAFSLETSASTAYLKINNLKNDDTATYFCARGPYWGQGTLVTVSA
VL: DVLLTQTPLSLPVSLGDQASISCRSSQSIVHNNGKIYLEWFLQKPGQSPKALIQKVSNRFSGVPDRFSGSGSGTDFTLKISRVEAEDLGVYYCFQGSHVPYTFGGGTKLEIKR
notes: Mouse hybridoma antibody (Balb/C mice), purified on protein G and HRP-labelled in the final ELISA; also called HRP-labelled monoclonal antibody; the monoclonal antibody

Assay [1] concerns the target T1, non-sense KLH-conjugated peptide IRQCPDRTYG-GGC-KLH.
T1 peptide: IRQCPDRTYGGGC(KLH)
Description: preliminary competitive ELISA for clone selection.

The target of assay [2] is T2, non-sense coater peptide Biotin-SHAHQRTGGN
T2 construct: Control coater on the streptavidin plate
T2 peptide: Biotin-SHAHQRTGGN
In words: ELISA with the non-sense biotinylated peptide as coater on a streptavidin plate. As for the experimental part:
Several optimizations were made to the ELISA including the choice of assay buffer, incubation time and temperature as well as concentrations of antibody and peptides. […] After washing five times with washing buffer (25 mM Tris, 50 mM NaCl, pH 7.2), 20 μL/well of sample was added in duplicates followed by 100 μL/well of 50 ng/mL HRP-labelled monoclonal antibody in assay buffer and incubated for 1 hour at 20° C. with shaking at 300 RPM. After a second washing cycle, 100 μL/well of TMB was added and incubated for 15 minutes in darkness at 20° C. with shaking at 300 RPM. The reaction was stopped by adding 100 μL/well of 1% H₂SO₄. Absorbance was measured at 450 nm with 650 nm as reference. To generate a standard curve, 20 μL/well of 50 ng/ml standard peptide ([…] (SEQ ID NO: 6)), serially diluted two-fold, was added to appropriate wells and a four-parametric logistic regression model was used to fit a curve. […]
Antibody specificity was evaluated by the inhibition of signal by two-fold serial dilutions of the standard peptide ([…] (SEQ ID NO: 6)), elongated peptide ([…] (SEQ ID NO: 2)), truncated peptide ([…] (SEQ ID NO: 3)) as well as a non-sense standard peptide ([…] (SEQ ID NO: 8)) and a non-sense coater peptide (Biotin-[…] (SEQ ID NO: 9)).

The target of assay [3] is B1. In words: competitive ELISA: standard peptide against coated Biotin-… for the HRP-labelled antibody. As for the experimental part: After washing five times with washing buffer (25 mM Tris, 50 mM NaCl, pH 7.2), 20 μL/well of sample was added in duplicates followed by 100 μL/well of 50 ng/mL HRP-labelled monoclonal antibody in assay buffer and incubated for 1 hour at 20° C. with shaking at 300 RPM. After a second washing cycle, 100 μL/well of TMB was added and incubated for 15 minutes in darkness at 20° C. with shaking at 300 RPM. The reaction was stopped by adding 100 μL/well of 1% H₂SO₄. Absorbance was measured at 450 nm with 650 nm as reference. […]
Assay variation was tested by running ten independent run of the assay using ten quality control samples in double determinations. […] Intra-assay variation was calculated as the mean coefficient of variance (CV %) between the double determinations on each of the ten runs. Inter-assay variation was calculated as the overall CV % for all determinations on the ten runs. Lower-and upper-limit of the measurement range (LLMR and ULMR) were determined as the concentrations that denotes the limits of the linear range of the assay. Lower limit of detection was calculated as the mean interpolated concentration of 21 blank samples, only containing assay buffer, plus three standard deviations. Upper limit of detection was calculated as the mean interpolated concentration of standard peptide corresponding to the highest concentration of the standard curve minus three standard deviations.

No end group written: not given here. *: point of attachment. Biotin = O=C1N[C@H]2[C@H](CS[C@H]2CCCCC(=O)*)N1; KLH = keyhole limpet hemocyanin

B1: the binding result in assay [1] and in assay [2] was “no binding” in each case.

B2: standard peptide RHLEGRGEPGAVGQMGSPGQQGASTQGLWE (peptide)
peptide: RHLEGRGEPGAVGQMGSPGQQGASTQGLWE
notes: Synthetic 30-mer corresponding to the C-terminus of type XX collagen; also called 30 amino-acid variant
In assay [3], B2 registered an IC50 of 5.59 ng/mL.
